In article PMC8219831, “Native mass spectrometry analyses of chaperonin complex TRiC/CCT reveal subunit N-terminal processing and re-association patterns” (Scientific Reports, 2021):

Experiments:
[1] = target: human TRiC subunit CCT8 (human) (UniProt P50990); assay: native MS; hTRiC in ammonium acetate pH 7.5 disrupted with 25% (v/v) DMSO, analysed within 30 min; dimers assigned by mass within 12 Da
[2] = target: the molecule itself; assay: intact mass spectrometry of reverse phase fractions (denaturing); RP-HPLC fractions of hTRiC in acetonitrile/TFA elution buffer, 0.1-0.6 μM, nanoelectrospray, QExactive Plus EMR; partially unfolded dimers; dimer masses fitted assuming disulfide formation (-2 Da)

Molecule | percent of all dimer signal [1] [%] | stoichiometry N [2]
human TRiC subunit CCT8 (from UniProt P50990 2-548) (natural protein) | 15 | –
human TRiC subunit CCT2 (natural protein, UniProt P78371 2-535, looked up, N-terminal acetylation, CCT2 subunit of human TRiC; initiator methionine removed (from the measured mass); also called CCTβ; source: Hi5 (Trichoplusia ni) cells, baculovirus pYC35 co-expressing CCT1-8; purified as hTRiC (calmodulin resin, monoQ, SEC); released by RP-HPLC or by 25% DMSO or methanol) ASLSLAPVNIFKAGADEERAETARLTSFIGAIAIGDLVKSTLGPKGMDKILLSSGRDASLMVTNDGATILKNIGVDNPAAKVLVDMSRVQDDEVGDGTTSVTVLAAELLREAESLIAKKIHPQTIIAGWREATKAAREALLSSAVDHGSDEVKFRQDLMNIAGTTLSSKLLTHHKDHFTKLAVEAVLRLKGSGNLEAIHIIKKLGGSLADSYLDEGFLLDKKIGVNQPKRIENAKILIANTGMDTDKIKIFGSRVRVDSTAKVAEIEHAEKEKMKEKVERILKHGINCFINRQLIYNYPEQLFGAAGVMAIEHADFAGVERLALVTGGEIASTFDHPELVKLGSCKLIEEVMIGEDKLIHFSGVALGEACTIVLRGATQQILDEAERSLHDALCVLAQTVKDSRTVYGGGCSEMLMAHAVTQLANRTPGKEAVAMESYAKALRMLPTIIADNAGYDSADLVAQLRAAHSEGNTTAGLDMREGTIGDMAILGITESFQVKRQVLLSAAEAAEVILRVDNIIKAAPRKRVPDHHPC | – | 2
human TRiC subunit CCT4 (natural protein, UniProt P50991 2-539, looked up, CCT4 subunit of human TRiC; initiator methionine removed, proline exposed, not acetylated (from the measured mass); also called CCTδ; source: Hi5 (Trichoplusia ni) cells, baculovirus pYC35 co-expressing CCT1-8; purified as hTRiC (calmodulin resin, monoQ, SEC); released by RP-HPLC or by 25% DMSO or methanol) PENVAPRSGATAGAAGGRGKGAYQDRDKPAQIRFSNISAAKAVADAIRTSLGPKGMDKMIQDGKGDVTITNDGATILKQMQVLHPAARMLVELSKAQDIEAGDGTTSVVIIAGSLLDSCTKLLQKGIHPTIISESFQKALEKGIEILTDMSRPVELSDRETLLNSATTSLNSKVVSQYSSLLSPMSVNAVMKVIDPATATSVDLRDIKIVKKLGGTIDDCELVEGLVLTQKVSNSGITRVEKAKIGLIQFCLSAPKTDMDNQIVVSDYAQMDRVLREERAYILNLVKQIKKTGCNVLLIQKSILRDALSDLALHFLNKMKIMVIKDIEREDIEFICKTIGTKPVAHIDQFTADMLGSAELAEEVNLNGSGKLLKITGCASPGKTVTIVVRGSNKLVIEEAERSIHDALCVIRCLVKKRALIAGGGAPEIELALRLTEYSRTLSGMESYCVRAFADAMEVIPSTLAENAGLNPISTVTELRNRHAQGEKTAGINVRKGGISNILEELVVQPLLVSVSALTLATETVRSILKIDDVVNTR | – | 2
